Assay [1] concerns the target HSP90-MC (residues 236–696) (UniProt P07900). The assay is described as follows: SEC; Superdex-200 Increase 10/300 GL, ~100 μM protein loaded; 20 mM phosphate, 50 mM NaCl, pH 6.5; apparent molecular weights from calibration with standard proteins. (In general: Size exclusion chromatography separates by hydrodynamic size, large species first.)
The next assay has as its target Htt-N20^S13P-GB1 (UniProt P42858). Put plainly: NMR titration; 15N-labelled Htt-N20-GB1 or mutants (50 μM) titrated with HSP90 constructs or HSP70; [1H,15N] HSQC peak intensities; 20 mM phosphate, 50 mM NaCl, pH 6.5, 25 °C.
Assay [2] deals with Htt-N20-GB1 (N-terminal 20-residue fragment of Htt with GB1 fused at the C terminus) (UniProt P42858). The assay is described as above.

A word on the stoichiometry N: it is the number of molecules, sites or subunits per partner or assembly.

For the substance “HSP90-MC (residues 236–696) (from UniProt P07900 236-696) (domain or fragment)”, in assay [1], the stoichiometry N worked out at 2.

In the case of “HSP90(1–696) (from UniProt P07900 1-696) (domain or fragment)”, the results for the average relative peak intensity of the Htt-N20 moiety at a 1:1 ratio (in the assay with Htt-N20^S13P-GB1; in assay [2]) were 0.86 and 0.59, respectively.
